These are literature values, as cited in patent US10870689B2, “ApoM-Fc fusion proteins, complexes thereof with sphingosine 1-phosphate (S1P), and methods for treating vascular and non-vascular diseases” (Children's Medical Center Corporation, priority 2016, dated 2020).

The conditions of data set [1]: Sevvana et al. 2010; read-out: relative affinity for S1P.
The conditions of data set [2]: not associated with HDL; Faber et al. 2006.

B1: recombinant ApoM: Bacterially expressed recombinant human ApoM (protein, UniProt O95445 1-188, looked up)
Apolipoprotein M: MFHQIWAALLYFYGIILNSIYQCPEHSQLTTLGVDGKEFPEVHLGQWYFIAGAAPTKEELATFDPVDNIVFNMAAGSAPMQLHLRATIRMKDGLCVPRKWIYHLTEGSTDLRTEGRPDMKTELFSSSCPGGIMLNETGQGYQRFLLYNRSPHPPEKCVEEFKSLTSCLDSKAFLLTPRNQEACELSNN
For the molecule B1, in data set [1], the Kd was roughly 1000 nM.

B2: Free ApoM: ApoM that is not associated with HDL (protein, UniProt O95445 1-188, looked up)
Apolipoprotein M: B1 Apolipoprotein M
Consider B2, for which the in vivo half-life entry in data set [2] is “less than 15 minutes”.
